Patent US20070258982A1 (Pfizer, published 2007)
Substitutions are numbered along the chain they refer to.

T1: human IL-22 (human, UniProt Q9GZX6 34-179)
T1 sequence: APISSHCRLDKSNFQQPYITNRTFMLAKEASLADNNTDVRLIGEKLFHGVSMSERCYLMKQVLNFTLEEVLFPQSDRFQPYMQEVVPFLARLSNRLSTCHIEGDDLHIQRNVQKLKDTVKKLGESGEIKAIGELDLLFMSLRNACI

T2: IL-26 (human, UniProt Q9NPH9)
T2 construct: also called human IL-26
T2 sequence (cytokine, looked up): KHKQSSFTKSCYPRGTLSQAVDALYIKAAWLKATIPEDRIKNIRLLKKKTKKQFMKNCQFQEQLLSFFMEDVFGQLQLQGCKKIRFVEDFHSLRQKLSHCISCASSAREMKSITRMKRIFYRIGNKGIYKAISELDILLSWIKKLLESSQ

B1: 356A11 scFv (non-germlined) (scFv)
scFv: QVQLVQSGAEVKKPGASVKVSCKASGYTFTNYYMHWVRQAPGQGLEWVGWINPYTGSAFYAQKFRGRVTMTRDTSINTAYMELSRLGSDDTAVYYCAREPEKFDSDDSDVWGRGTMVTVSGGGGSSGGGGSGGSGSAQAVLTPPSVSGAPGQRVTISCTGSSSNIGAGYGVHWYQQLPGTAPKLIIYGDSSRPSGVPDRFSGSKSGTSASLAITGLQAEDEADYYCQSYDNSLSGYVFGTGTQLTVLSA
B2: 355E04 scFv (non-germlined) (scFv)
scFv: QVQLVQSGAEVKKPGASVKVSCKASGYTFTHYYMHWVRQAPGQGLEWVGWINPYTGGAFYAQKFQGRVTMTRDTSINTAYMELSRLGSDDTAVYYCAREPEKFDSPNAEIWGRGTMVTISSEGGGSGGGGSGGSGSAQAVLTQPSSVSGAPGQRVTISCTGSSSNIGAGYGVHWYQQLPGTAPKLLIYGNSNRPSGVPDRFSGSKSGTSASLAITGLQAEDEADYYCQSYDSSLSGYVFGTGTQLTVLSA
B3: 376B10 scFv (non-germlined) (scFv)
scFv: EVQLVQSGAEVKKPGASVKVSCQASGYTFSDYYIHWVRQTPGQGFEWMGWVNPDTGGTRYAQKFQGWVTMTRDMSNTTAYMELPGLRDDDTAVYYCARDLTGYDQYTAWGQGTLVTVSSGGGGSGGGGSGGGGSAQSVLTQPPSVSVAPGKTATITCGGNNFRNKRVHWYQQRPGQAPVLVIYYDSDRPSGIPERFSGSRSGNTATLTISRVEAGDEADFYCSTFDPFTDRPLFGGGTKLTVLGAAAH
B4: 062G05 scFv (non-germlined) (scFv)
scFv: QVQLVESGAEVKKPGASVKVSCKASGYTFTSYGISWVRQAPGQGLEWMGWISAYTGNTNYAQKFQGRVTMTTDTSTSTAYMELRSLRSDDTAVYYCARDRGYYDAFDIWGQGTLVTVSSGGGGSGGGGSGGGGSDIQMTQSPSTLSASIGDRVTITCRASEGIYHWLAWYQQKPGKAPKLLIYKASSLASGAPSRFSGSGFGTDFTLTISSLQPDDFATYYCQQMGEWKAAFGGGTKLEIKRAAAH
B5: 062A09 scFv (non-germlined) (scFv)
scFv: B4 scFv with I51V, S85G, F106Y, W228Y, K229N, A231T, F232I
B6: 097D09 scFv (non-germlined) (scFv)
scFv: EVQLVESGGGLVTPGGSLRLSCAASGFTFSDYYMSWVRQAPGRGLEWVSAISGSGGSTYYADSVKGRITISRDNAKNSLYLQMSSLRSEDTAVYYCARGLWVWDPLDYWGRGTLVTVSSGGGGSGGGGSGGGGSDIQMTQSPSTLSASIGDRVTITCRASEGIYHWLAWYQQKPGKAPKLLIYKASSLASGAPSRFSGSGFGTDFTLTISSLQPDDFATYYCQQYSEFAWTFGGGTKLEIKRAAAH
B7: 062A09 IgG (non-germlined) (antibody, V domains shown)
VH: QVQLVESGAEVKKPGASVKVSCKASGYTFTSYGISWVRQAPGQGLEWMGWVSAYTGNTNYAQKFQGRVTMTTDTSTSTAYMELRGLRSDDTAVYYCARDRGYYDAFDIWGQGTLVTVSS
VL: DIQMTQSPSTLSASIGDRVTITCRASEGIYHWLAWYQQKPGKAPKLLIYKASSLASGAPSRFSGSGFGTDFTLTISSLQPDDFATYYCQQMGEYNATIGGGTKLEIKR
B8: 354A08 scFv (non-germlined) (scFv)
scFv: QVQLVQSGAEKKPGASVKVSCKASGYTFTDYYMHWVRQAPGQGLEWVGWINPYTGGAFYAQKFRGRVTMTRDTSINTAYMELSRLGSDDTAVYYCAREPERFGDSTGQVWGRGTMVTVSSGGGGSGGGGSGGSRSAQAVLTQPSSVSGAPRQRVTISCTGSSSNIGAGYGVHWYQQLPGTAPKLLIYGNSNRPSGVPDRFSGSKSGTSASLAITGLQAEDEADYYCYHWDKEQSGYVFGTGTQLTVLSA
B9: 355B06 scFv (non-germlined) (scFv)
scFv: EVQLVQSGAEVKKPGASVKVSCQASGYTFTDYYMHWVRQAPGQGLEWVGWINPYTGSAFYAQKFRGRATMTRNTSINTAYMELSRLGSDDTAVYYCAREPEKFGESSGQLWGRGTMVTISSGGGGSGGGGSGGSGSAQAVLTQPSSVSGAPGQRVTISCTGSSSNIGPGYGVHWYQQLPGTAPKLLIYGDSNRPSGVPDRFSGSKSGTSASLAITGLQAEDEADYYCQSYDSGLSGYVFGTGTQLTVLSA
B10: 375G06 scFv (non-germlined) (scFv)
scFv: EVQLVQSGAEVKKPGASVKVSCQASGYTFSDYYIHWVRQTPGQGFEWMGWVNPDTGGTRYAQKFQGWVTMTRDMSNTTAYMELPRLRDDDTAVYYCARDLTGYDYYDRWGQGTLVTVSSGGGGSGGGGSGGGGGGSGGGGGGSGGGGSAQSVLTQPPSMSVAPGKTATITCGGNNFRNKRVHWYQQRPGQAPVLVIYYDSDRPSGIPERFSGSRSGNTATLTISRVEAGDEADFYCQVWDFLADEAMFGGGTKLTVLGAAAH
B11: 087B03 scFv (non-germlined) (scFv)
scFv: EVQLVESGGGVVRPGGSLRLSCAASGFTFDDYGMNWVRQAPGKGLEWVSGVNWNGGTRDYAASVKGRFTISRDNAKNSLYLQMNSLRAEDTALYYCARGWYSGAAWNMGYWGRGTLVTVSSGGGGSGGGGSGGGGSAQAVLTQPSSVSGSPGQSITISCTGASGDVGAYNFVSWYQQHPGKTPKLIIYDVNKRPSGVSNRFSGSKSSNTASLTISGLQAEDESDYYCSSYTSTFSVVFGGGTKVTVLGAAAH
B12: 367D04 scFv (non-germlined) (scFv)
scFv: EVQLVESGGGVVRPGGSLRLSCAASGFTFDDYGMNWVRQAPGKGLEWVSGVNWNGGTRDYAASVKGRFTISRDNAKNSLYLQMNSLRAEDTALYYCARGWYSGSPWSLGHWGRGTLVTVSSGGGGSGGGGSGGSGGGSGGSGGGSSGGGSGGGGSAQAVLTQPSSVSGSPGQSVTISCTGASGDVGAYNFVSWYQQHPGKTPKLIIYDVNKRPSGVSNRFSGSKSGNTASLTISRLQAEDESDYYCSSYTSRYTTEFGGGTKVTVLGAAAH
B13: 166G05 scFv (non-germlined) (scFv)
scFv: EVQLVQSGAEVKKPGASVKVSCQASGYTFSDYYIHWVRQTPGQGFEWMGWVNPDTGGTRYAQKFQGWVTMTRDMSNTTAYMELPRLRDDDTAVYYCARDLTGFDPFDIWGQGTLVTVSSGGGGSGGGGSGGGGSAQSVLTQPPSVSVAPGKTATITCGGNNFRNKRVHWYQQRPGQAPVLVIYYDSDRPSGIPERFSGSRSGNTATLTISRVEAGDEADFYCQVWDFLTDSGSFGGGTKLTVLGAAAH
B14: 166B06 scFv (non-germlined) (scFv)
scFv: B13 scFv with G123S, F227L, L228F, T229N, S231N, S233V
B15: 166B06 IgG (non-germlined) (antibody, V domains shown)
VH: EVQLVQSGAEVKKPGASVKVSCQASGYTFSDYYIHWVRQTPGQGFEWMGWVNPDTGGTRYAQKFQGWVTMTRDMSNTTAYMELPRLRDDDTAVYYCARDLTGFDPFDIWGQGTLVTVSS
VL: QSVLTQPPSVSVAPGKTATITCGGNNFRNKRVHWYQQRPGQAPVLVIYYDSDRPSGIPERFSGSRSGNTATLTISRVEAGDEADFYCQVWDLFNDNGVFGGGTKLTVLG
B16: 166G05 IgG (non-germlined) (antibody, V domains shown)
VH: B15 VH
VL: B15 VL with L92F, F93L, N94T, N96S, V98S
B17: 368D04 scFv (non-germlined) (scFv)
scFv: EVQLVESGGGVVRPGGSLRLSCAASGFTFDDYGMNWVRQAPGKGLEWVSGVNWNGGTRDYAASVKGRFTISRDNAKNSLYLQMNSLRAEDTALYYCARGWYSGAAWNMGYWGRGTLVTVSSGGGGSGGGGSGGSGGGSGGGGGGSGGGGSAQAVLTQPSSVSGSPGQSITISCTGASGDVGAYNFVSWYQQHPGKTPKLIIYDVNKRPSGVSNRFSGSKSGNTASLTISGLQAEDESDYYCASLVSDFSVVFGGGTKVTVLGAAAH
B18: 087B03 IgG (germlined) (antibody, V domains shown)
VH: EVQLVESGGGVVRPGGSLRLSCAASGFTFDDYGMNWVRQAPGKGLEWVSGVNWNGGTRDYAASVKGRFTISRDNAKNSLYLQMNSLRAEDTALYHCARGWYSGAAWNMGYWGRGTLVTVSS
VL: QAALTQPASVSGSPGQSITISCTGASGDVGAYNFVSWYQQHPGKAPKLIIYDVNKRPSGVSNRFSGSKSGNTASLTISGLQAEDEADYYCSSYTSTFSVVFGGGTKLTVLG
B19: 166B06 IgG (germlined) (antibody, V domains shown)
VH: B15 VH with E1Q, Q23K, T40A, F45L, W67R, N76I, T77S, P84S, D88S
VL: B15 VL with Q1S, T19R, R38K, F85Y

biological target: T1, human IL-22; assay: cell-based or functional assay

Binder | IC50 of scFv (pM) in BaF3-IL-22 proliferation assay [pM] | IC50 of IgG (pM) in BaF3-IL-22 proliferation assay [pM]
B1 | 124 | –
B2 | 192 | –
B3 | 104 | –
B4 | 182 | –
B5 | 267 | –
B6 | 298 | –
B7 | – | 83
B8 | 219 | –
B9 | 183 | –
B10 | 118 | –
B11 | 212 | –
B12 | 160 | –
B13 | 204 | –
B14 | 460 | –
B15 | – | 71
B16 | – | 97
B17 | 186 | –

biological target: T3, BSA (bovine, UniProt P02769); assay: ELISA: plate coated with antigen, IgG added at 1 µg/ml, HRP goat anti-human IgG, A450
T3 construct: also called bovine serum albumin
T3 sequence (P02769 25-607 limits assumed): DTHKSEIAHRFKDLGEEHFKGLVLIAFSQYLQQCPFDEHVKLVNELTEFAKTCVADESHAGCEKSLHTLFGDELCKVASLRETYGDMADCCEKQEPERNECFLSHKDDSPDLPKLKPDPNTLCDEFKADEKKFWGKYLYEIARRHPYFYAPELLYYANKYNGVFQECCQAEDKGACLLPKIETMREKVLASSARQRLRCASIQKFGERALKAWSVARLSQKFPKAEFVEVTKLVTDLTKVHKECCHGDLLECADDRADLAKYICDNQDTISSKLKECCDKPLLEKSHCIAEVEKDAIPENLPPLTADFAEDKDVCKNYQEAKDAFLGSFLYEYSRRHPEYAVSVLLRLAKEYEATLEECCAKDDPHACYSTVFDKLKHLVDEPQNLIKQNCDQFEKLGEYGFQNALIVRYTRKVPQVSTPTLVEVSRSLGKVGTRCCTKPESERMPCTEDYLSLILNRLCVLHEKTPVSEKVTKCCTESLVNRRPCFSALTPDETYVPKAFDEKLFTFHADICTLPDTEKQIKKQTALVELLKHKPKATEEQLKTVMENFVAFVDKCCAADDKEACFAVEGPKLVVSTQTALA

Binder | binding result
B18 | no binding (tested: 1 µg/ml)
B19 | no binding (tested: 1 µg/ml)

biological target: T2, IL-26; assay: ELISA: plate coated with 1 µg/ml antigen, IgG added at 1 µg/ml, HRP goat anti-human IgG, A450
Procedure: Cross species reactivity of germlined and non-germlined optimized antibodies were determined as follows: ELISA plates (Costar, Cat. #3590) were coated overnight with 1 μg/ml of rat, mouse, or human IL-22 or human IL-26 in PBS buffer. Plates were washed with PBST buffer (0.05% Tween20 in PBS) 3 times, then blocked with 1% BSA (Sigma A8918)/PBST for 1 hr at RT. Antibodies were added at 1 μg/ml, incubated 1 hr at 25° C. […] The plates were incubated for 1 hour at 25° C., then washed with PBST, and developed with TMB (KPL, Cat. #50-76-04). Reaction was stopped with 0.18 M H₂SO₄ Plates were read at OD 450 nm.

Binder | binding result
B18 | no binding (tested: 1 µg/ml)
B19 | no binding (tested: 1 µg/ml)
